Source: article PMC5369232

Columns and labels:
[1] = target: fluorescence recovery protein (FRP, Slr1964) of Synechocystis sp. PCC 6803, His6-tagged (Synechocystis sp. PCC 6803) (UniProt P74103); assay: native MS
[2] = target: T1, orange carotenoid protein (OCP) of Synechocystis sp. PCC 6803 (Synechocystis sp. PCC 6803), P74102; assay: native MS; conditions: remark: other sources report otherwise
T1 chain: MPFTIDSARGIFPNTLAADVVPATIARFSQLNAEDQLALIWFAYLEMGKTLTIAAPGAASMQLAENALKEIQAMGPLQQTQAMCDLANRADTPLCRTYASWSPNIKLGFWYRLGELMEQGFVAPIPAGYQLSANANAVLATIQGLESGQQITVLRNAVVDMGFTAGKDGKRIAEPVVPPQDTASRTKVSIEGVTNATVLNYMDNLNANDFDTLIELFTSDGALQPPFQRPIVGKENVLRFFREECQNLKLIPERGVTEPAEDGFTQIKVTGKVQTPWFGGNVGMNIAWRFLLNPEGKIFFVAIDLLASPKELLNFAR

Molecule: fluorescence recovery protein (FRP, Slr1964) of Synechocystis sp. PCC 6803, His6-tagged (from UniProt P74103 2-109) (natural protein)
- stoichiometry N [1]: 2

B1: orange carotenoid protein (OCP) of Synechocystis sp. PCC 6803, P74102 1-317 (natural protein)
chain: T1 chain
- stoichiometry N [2]: 2
